Patent US20210284724A1 (I MAB BIOPHARMA US, published 2021)

T1: human CXCL13 (human, UniProt O43927 23-109)
T1 construct: also called huCXCL13; rhCXCL13
T1 sequence (looked up): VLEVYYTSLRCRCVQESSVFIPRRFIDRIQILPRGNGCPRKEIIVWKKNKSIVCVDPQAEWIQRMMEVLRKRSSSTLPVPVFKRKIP


Columns and labels:
human CXCL13 [1] = target: T1, human CXCL13; assay: SPR Biacore 8K, Fab over immobilised CXCL13
Protocol: Among all humanized Fab samples, 71F4A3-VH2VL1, 71F4A3-VH1VL1 (Hz71F4), 71F4A3-VH1VL2, 71F4A3-VH3VL1, 411A11E9-VH1VL4, 411A11E9-VH3VL4, 411A11E9-VH2VL4, 411A11E9-VH3VL2, 411A11E9-VH1VL2, 21H12D9-VH1VL1, 21H12D9-VH2VL2, 21H12D9-VH3VL3, 21H12D9-VH1VL2, 64C10G1-VH1VL3, 64C10G1-VH1VL4, 64C10G1-VH1VL1, 64C10G1-VH1VL2 were selected to test affinity by Biacore 8K. 10 mM HEPES, 150 mM NaCl, 3 mM EDTA, 0.05% Tween-20, pH 7.4 served as running buffer and 10 mM glycine-HCl, pH2.0 served as regeneration buffer. CXCL13 protein were immobilized on Sensor Chip CM5 using amine coupling method (immobilization level ˜250RU). The serial concentrations of Fab (0-20 nM) were injected over immobilized CXCL13 at the flow rate of 30 μl/min. The dissociation phases were 600s.

human CXCL13 [2] = target: T1, human CXCL13; assay: SPR Biacore, off-rate ranking of Fabs

Binder	Kd (human CXCL13 [1])	koff (human CXCL13 [1])	kon (human CXCL13 [1])	Kd (human CXCL13 [2])	koff (human CXCL13 [2])	kon (human CXCL13 [2])
21H12D9-VH2VL2 (Fab, V domains shown, Humanized Fab, human gamma 1 and kappa constant domains; also called 21VH12D9-VH2VL2) VH: QVQLVQSGAEVVKPGASVKVSCKASGYTFTDYYMNWVRQAPGQGLEWMGVINPNNGGTTYKEKFKGRVTMTVDTSISTAYMELSRLRSDDTAVYYCARDDYDAGYWGQGTLVTVSS VL: DIQMTQSPSSVSTSVGDRVTITCKASQNVDTAVAWYQQKPGKAPKLLIYSASHRYTGVPSRFSGSGSGTDFTLTISSLQPEDFATYYCQQYTDFPLTFGQGTRLEIK	1.32 nM	0.00195 s⁻¹	1.48e+06 M⁻¹ s⁻¹	1.94 nM	0.000802 s⁻¹	414000 M⁻¹ s⁻¹
21H12D9-VH3VL1 (Fab, V domains shown, Humanized Fab, human gamma 1 and kappa constant domains; also called 21VH12D9-VH3VL1) VH: QVQLVQSGAEVVKPGASVKVSCKASGYTFTDYYMNWVRQAPGQGLEWIGVINPNNGGTTYKEKFKGRATLTVDTSISTAYMELSRLRSDDTAVYYCARDDYDAGYWGQGTLVTVSS VL: DIQMTQSPSSVSASVGDRVTITCKASQNVDTAVAWYQQKPGKAPKLLIYSASHRYTGVPSRFSGSGSGTDFTLTISSLQPEDFATYYCQQYTDFPLTFGQGTRLEIK	–	–	–	1.76 nM	0.00131 s⁻¹	744000 M⁻¹ s⁻¹
21H12D9-VH2VL1 (Fab, V domains shown, Humanized Fab, human gamma 1 and kappa constant domains; also called 21VH12D9-VH2VL1) VH: QVQLVQSGAEVVKPGASVKVSCKASGYTFTDYYMNWVRQAPGQGLEWMGVINPNNGGTTYKEKFKGRVTMTVDTSISTAYMELSRLRSDDTAVYYCARDDYDAGYWGQGTLVTVSS VL: DIQMTQSPSSVSASVGDRVTITCKASQNVDTAVAWYQQKPGKAPKLLIYSASHRYTGVPSRFSGSGSGTDFTLTISSLQPEDFATYYCQQYTDFPLTFGQGTRLEIK	–	–	–	1.74 nM	0.000991 s⁻¹	570000 M⁻¹ s⁻¹
21H12D9-VH1VL1 (Fab, V domains shown, Humanized Fab, human gamma 1 and kappa constant domains; also called 21VH12D9-VH1VL1) VH: QVQLVQSGAEVKKPGASVKVSCKASGYTFTDYYMNWVRQAPGQGLEWMGVINPNNGGTTYKEKFKGRVTMTRDTSISTAYMELSRLRSDDTAVYYCARDDYDAGYWGQGTLVTVSS VL: DIQMTQSPSSVSASVGDRVTITCKASQNVDTAVAWYQQKPGKAPKLLIYSASHRYTGVPSRFSGSGSGTDFTLTISSLQPEDFATYYCQQYTDFPLTFGQGTRLEIK	1.23 nM	0.00203 s⁻¹	1.66e+06 M⁻¹ s⁻¹	1.33 nM	0.00323 s⁻¹	2.42e+06 M⁻¹ s⁻¹
21H12D9-VH2VL3 (Fab, V domains shown, Humanized Fab, human gamma 1 and kappa constant domains; also called 21VH12D9-VH2VL3) VH: QVQLVQSGAEVVKPGASVKVSCKASGYTFTDYYMNWVRQAPGQGLEWMGVINPNNGGTTYKEKFKGRVTMTVDTSISTAYMELSRLRSDDTAVYYCARDDYDAGYWGQGTLVTVSS VL: DIQMTQSPSSVSTSVGDRVTITCKASQNVDTAVAWYQQKPGKAPKLLIYSASHRYTGVPSRFSGSGSGTDFTLTISSVQPEDFATYYCQQYTDFPLTFGQGTRLEIK	–	–	–	1.98 nM	0.000992 s⁻¹	501000 M⁻¹ s⁻¹
21H12D9-VH4VL2 (Fab, V domains shown, Humanized Fab, human gamma 1 and kappa constant domains; also called 21VH12D9-VH4VL2) VH: QVQLVQSGAEVVKPGASVKMSCKASGYTFTDYYMNWVRQAPGQGLEWIGVINPNNGGTTYKEKFKGRATLTVDTSIGTAYMELSRLRSDDTAVYYCARDDYDAGYWGQGTLLTVSS VL: DIQMTQSPSSVSTSVGDRVTITCKASQNVDTAVAWYQQKPGKAPKLLIYSASHRYTGVPSRFSGSGSGTDFTLTISSLQPEDFATYYCQQYTDFPLTFGQGTRLEIK	–	–	–	1.54 nM	0.00114 s⁻¹	742000 M⁻¹ s⁻¹
21H12D9-VH4VL3 (Fab, V domains shown, Humanized Fab, human gamma 1 and kappa constant domains; also called 21VH12D9-VH4VL3) VH: QVQLVQSGAEVVKPGASVKMSCKASGYTFTDYYMNWVRQAPGQGLEWIGVINPNNGGTTYKEKFKGRATLTVDTSIGTAYMELSRLRSDDTAVYYCARDDYDAGYWGQGTLLTVSS VL: DIQMTQSPSSVSTSVGDRVTITCKASQNVDTAVAWYQQKPGKAPKLLIYSASHRYTGVPSRFSGSGSGTDFTLTISSVQPEDFATYYCQQYTDFPLTFGQGTRLEIK	–	–	–	1.59 nM	0.00116 s⁻¹	729000 M⁻¹ s⁻¹
21H12D9-VH3VL2 (Fab, V domains shown, Humanized Fab, human gamma 1 and kappa constant domains; also called 21VH12D9-VH3VL2) VH: QVQLVQSGAEVVKPGASVKVSCKASGYTFTDYYMNWVRQAPGQGLEWIGVINPNNGGTTYKEKFKGRATLTVDTSISTAYMELSRLRSDDTAVYYCARDDYDAGYWGQGTLVTVSS VL: DIQMTQSPSSVSTSVGDRVTITCKASQNVDTAVAWYQQKPGKAPKLLIYSASHRYTGVPSRFSGSGSGTDFTLTISSLQPEDFATYYCQQYTDFPLTFGQGTRLEIK	–	–	–	1.47 nM	0.00138 s⁻¹	940000 M⁻¹ s⁻¹
